# Results reported in paper PMC3946371.
# Molecular target: Vaccinia virus D4 with non-cleavable N-terminal His-tag, co-expressed with MBP-A20(1-50) (vaccinia virus (Copenhagen strain)) (UniProt P20536)
# Test: SEC-MALS
substance,measurement,value
"First 50 amino acids of vaccinia virus A20, wild type, released from MBP by TEV (from UniProt P20995 1-50) (domain or fragment)",stoichiometry N,1
